In US20230365674 (published 2023):

What was measured:
Assay in all cases: ELISA
rat NPR1-ANP complex = target: T1, rat NPR1-ANP complex (rat)
T1 chain 1: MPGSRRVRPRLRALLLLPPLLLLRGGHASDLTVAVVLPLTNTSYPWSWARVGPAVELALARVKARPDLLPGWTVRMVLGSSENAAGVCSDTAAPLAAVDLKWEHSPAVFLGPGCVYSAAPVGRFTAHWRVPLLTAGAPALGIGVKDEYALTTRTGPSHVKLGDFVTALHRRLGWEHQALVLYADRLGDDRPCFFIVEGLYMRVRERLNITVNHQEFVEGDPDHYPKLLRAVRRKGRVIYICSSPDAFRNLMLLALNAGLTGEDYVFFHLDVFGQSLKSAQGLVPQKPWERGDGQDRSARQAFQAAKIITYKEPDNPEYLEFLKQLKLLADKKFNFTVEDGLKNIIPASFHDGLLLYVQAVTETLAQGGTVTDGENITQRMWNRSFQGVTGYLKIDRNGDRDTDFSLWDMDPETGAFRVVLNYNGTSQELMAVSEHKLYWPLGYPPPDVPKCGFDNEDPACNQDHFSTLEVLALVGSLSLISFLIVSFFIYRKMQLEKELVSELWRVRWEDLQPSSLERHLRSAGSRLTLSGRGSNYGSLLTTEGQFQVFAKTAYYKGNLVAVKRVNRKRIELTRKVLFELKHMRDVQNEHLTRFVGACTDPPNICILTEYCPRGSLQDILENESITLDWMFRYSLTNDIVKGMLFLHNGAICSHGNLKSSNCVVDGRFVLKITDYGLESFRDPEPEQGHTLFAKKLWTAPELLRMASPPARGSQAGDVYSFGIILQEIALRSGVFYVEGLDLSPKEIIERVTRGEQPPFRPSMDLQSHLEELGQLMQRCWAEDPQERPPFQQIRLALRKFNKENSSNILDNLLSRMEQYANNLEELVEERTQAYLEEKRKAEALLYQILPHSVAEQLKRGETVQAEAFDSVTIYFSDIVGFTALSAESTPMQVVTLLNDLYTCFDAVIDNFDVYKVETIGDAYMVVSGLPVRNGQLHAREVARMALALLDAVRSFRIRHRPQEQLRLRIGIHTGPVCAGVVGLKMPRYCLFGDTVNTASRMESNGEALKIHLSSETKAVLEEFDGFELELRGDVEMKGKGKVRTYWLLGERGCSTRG
T1 chain 2: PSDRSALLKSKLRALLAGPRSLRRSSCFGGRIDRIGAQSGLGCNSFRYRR

human NPR1 = target: T2, human NPR1 (human)
T2 chain: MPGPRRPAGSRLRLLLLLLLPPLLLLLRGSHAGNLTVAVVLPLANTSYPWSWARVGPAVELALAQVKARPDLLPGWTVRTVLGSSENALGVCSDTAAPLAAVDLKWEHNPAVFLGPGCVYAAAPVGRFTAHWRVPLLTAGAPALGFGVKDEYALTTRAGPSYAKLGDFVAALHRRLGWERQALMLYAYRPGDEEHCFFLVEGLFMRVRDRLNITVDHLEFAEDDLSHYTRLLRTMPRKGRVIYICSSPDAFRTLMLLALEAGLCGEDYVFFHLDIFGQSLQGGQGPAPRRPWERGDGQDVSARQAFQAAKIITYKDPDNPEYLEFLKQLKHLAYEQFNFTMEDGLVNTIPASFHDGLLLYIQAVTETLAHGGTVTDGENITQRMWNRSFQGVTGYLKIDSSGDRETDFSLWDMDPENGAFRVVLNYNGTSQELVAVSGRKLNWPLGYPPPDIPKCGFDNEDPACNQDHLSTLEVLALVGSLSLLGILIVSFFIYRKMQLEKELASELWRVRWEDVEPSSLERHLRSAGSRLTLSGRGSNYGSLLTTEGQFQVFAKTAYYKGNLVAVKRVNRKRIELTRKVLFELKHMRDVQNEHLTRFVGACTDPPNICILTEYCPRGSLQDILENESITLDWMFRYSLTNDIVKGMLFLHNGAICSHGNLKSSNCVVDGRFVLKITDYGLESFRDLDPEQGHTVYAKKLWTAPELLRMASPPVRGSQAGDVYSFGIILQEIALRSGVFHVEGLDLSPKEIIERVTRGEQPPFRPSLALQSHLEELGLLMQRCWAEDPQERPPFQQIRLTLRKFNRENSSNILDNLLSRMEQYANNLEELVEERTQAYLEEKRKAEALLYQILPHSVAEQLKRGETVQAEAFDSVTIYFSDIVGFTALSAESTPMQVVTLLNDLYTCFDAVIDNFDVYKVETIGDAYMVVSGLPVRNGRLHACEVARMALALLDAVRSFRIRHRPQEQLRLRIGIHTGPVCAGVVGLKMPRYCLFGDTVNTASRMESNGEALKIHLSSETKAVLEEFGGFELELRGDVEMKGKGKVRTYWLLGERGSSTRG

rat NPR1 = target: T3, rat NPR1 (rat)
T3 chain: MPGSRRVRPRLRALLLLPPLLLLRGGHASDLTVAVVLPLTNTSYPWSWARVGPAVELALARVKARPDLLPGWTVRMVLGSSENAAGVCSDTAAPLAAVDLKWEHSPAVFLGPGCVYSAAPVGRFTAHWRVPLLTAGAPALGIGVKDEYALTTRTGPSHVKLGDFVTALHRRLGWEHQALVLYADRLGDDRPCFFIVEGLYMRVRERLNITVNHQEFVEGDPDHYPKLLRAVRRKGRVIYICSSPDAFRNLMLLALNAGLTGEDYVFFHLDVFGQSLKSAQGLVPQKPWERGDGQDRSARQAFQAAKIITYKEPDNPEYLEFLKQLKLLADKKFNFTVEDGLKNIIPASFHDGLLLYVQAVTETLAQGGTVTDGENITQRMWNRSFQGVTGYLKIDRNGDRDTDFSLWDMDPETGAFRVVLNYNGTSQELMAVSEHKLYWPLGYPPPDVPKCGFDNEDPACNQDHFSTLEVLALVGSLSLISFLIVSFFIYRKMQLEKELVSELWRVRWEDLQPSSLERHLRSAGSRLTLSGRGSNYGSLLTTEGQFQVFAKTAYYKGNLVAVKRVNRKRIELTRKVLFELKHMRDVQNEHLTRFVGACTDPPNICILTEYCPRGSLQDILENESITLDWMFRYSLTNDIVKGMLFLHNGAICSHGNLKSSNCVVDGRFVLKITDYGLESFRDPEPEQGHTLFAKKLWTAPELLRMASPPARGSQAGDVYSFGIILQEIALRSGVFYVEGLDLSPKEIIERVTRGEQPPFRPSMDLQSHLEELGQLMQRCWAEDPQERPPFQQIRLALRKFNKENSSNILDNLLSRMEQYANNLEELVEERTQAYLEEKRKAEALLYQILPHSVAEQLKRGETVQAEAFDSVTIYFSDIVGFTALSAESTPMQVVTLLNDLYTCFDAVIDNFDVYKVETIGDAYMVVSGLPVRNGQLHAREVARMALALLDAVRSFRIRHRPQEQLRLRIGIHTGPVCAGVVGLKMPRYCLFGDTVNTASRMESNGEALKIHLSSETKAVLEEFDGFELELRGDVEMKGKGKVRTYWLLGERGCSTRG

human NPR3 + ANP = target: T4, human NPR3 + ANP (human, UniProt P17342)
T4 chain 1: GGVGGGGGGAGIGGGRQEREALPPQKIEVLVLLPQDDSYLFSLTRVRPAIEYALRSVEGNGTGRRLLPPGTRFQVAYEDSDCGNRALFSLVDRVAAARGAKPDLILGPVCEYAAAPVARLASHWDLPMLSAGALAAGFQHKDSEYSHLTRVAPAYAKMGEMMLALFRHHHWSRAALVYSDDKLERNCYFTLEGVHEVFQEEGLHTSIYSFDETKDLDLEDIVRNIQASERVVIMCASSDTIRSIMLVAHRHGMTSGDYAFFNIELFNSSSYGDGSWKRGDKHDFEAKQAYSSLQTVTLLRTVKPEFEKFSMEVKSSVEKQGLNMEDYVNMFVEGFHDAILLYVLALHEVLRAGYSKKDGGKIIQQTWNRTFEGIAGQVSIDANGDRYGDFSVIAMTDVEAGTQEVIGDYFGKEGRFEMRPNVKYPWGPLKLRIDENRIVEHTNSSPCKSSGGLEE
T4 chain 2: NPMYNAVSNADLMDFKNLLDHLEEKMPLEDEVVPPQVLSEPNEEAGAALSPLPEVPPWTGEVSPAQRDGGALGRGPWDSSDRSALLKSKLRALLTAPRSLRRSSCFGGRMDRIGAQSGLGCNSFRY

human NPR1 W74R = target: T5, human NPR1 W74R (human)
T5 chain: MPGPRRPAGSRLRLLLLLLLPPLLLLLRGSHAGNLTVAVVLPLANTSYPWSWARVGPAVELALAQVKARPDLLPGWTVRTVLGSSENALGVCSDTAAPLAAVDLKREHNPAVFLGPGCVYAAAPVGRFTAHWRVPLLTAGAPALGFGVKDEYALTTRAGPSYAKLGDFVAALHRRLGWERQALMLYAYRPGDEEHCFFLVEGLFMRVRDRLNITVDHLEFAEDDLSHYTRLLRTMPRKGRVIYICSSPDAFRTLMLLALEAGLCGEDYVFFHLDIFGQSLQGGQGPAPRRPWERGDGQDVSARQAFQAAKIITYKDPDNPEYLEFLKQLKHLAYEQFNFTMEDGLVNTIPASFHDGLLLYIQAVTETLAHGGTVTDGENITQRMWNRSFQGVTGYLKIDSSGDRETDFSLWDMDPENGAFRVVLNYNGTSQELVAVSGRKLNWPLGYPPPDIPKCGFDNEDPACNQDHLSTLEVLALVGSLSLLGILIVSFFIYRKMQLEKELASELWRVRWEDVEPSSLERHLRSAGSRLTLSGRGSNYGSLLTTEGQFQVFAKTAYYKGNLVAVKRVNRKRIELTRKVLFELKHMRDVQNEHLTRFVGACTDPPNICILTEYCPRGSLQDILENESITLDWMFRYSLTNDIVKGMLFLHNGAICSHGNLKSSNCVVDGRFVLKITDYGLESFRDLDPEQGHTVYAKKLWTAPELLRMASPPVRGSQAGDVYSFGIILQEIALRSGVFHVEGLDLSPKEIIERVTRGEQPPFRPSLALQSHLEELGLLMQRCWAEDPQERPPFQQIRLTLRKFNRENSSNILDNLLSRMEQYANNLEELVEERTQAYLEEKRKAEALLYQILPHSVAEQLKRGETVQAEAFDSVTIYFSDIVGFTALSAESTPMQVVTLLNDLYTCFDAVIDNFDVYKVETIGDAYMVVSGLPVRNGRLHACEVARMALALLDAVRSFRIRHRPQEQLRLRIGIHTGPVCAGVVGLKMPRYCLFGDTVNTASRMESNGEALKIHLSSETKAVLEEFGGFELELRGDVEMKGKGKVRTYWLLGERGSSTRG

human NPR3 = target: T6, human NPR3 (human, UniProt P17342)
T6 chain: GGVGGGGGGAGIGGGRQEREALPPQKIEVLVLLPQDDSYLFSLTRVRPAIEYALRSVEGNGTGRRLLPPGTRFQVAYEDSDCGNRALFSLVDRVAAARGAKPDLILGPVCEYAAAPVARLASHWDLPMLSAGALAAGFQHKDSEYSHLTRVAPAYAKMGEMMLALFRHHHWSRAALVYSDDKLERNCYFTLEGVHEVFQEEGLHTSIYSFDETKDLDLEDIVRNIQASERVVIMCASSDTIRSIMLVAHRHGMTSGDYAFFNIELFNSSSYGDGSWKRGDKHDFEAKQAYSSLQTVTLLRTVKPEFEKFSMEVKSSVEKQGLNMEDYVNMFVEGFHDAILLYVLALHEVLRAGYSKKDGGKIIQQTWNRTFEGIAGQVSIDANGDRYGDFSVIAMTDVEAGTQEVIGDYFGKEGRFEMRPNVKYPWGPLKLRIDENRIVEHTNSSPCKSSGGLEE

human NPR1 W74R + ANP = target: T7, human NPR1 W74R + ANP (human)
T7 chain 1: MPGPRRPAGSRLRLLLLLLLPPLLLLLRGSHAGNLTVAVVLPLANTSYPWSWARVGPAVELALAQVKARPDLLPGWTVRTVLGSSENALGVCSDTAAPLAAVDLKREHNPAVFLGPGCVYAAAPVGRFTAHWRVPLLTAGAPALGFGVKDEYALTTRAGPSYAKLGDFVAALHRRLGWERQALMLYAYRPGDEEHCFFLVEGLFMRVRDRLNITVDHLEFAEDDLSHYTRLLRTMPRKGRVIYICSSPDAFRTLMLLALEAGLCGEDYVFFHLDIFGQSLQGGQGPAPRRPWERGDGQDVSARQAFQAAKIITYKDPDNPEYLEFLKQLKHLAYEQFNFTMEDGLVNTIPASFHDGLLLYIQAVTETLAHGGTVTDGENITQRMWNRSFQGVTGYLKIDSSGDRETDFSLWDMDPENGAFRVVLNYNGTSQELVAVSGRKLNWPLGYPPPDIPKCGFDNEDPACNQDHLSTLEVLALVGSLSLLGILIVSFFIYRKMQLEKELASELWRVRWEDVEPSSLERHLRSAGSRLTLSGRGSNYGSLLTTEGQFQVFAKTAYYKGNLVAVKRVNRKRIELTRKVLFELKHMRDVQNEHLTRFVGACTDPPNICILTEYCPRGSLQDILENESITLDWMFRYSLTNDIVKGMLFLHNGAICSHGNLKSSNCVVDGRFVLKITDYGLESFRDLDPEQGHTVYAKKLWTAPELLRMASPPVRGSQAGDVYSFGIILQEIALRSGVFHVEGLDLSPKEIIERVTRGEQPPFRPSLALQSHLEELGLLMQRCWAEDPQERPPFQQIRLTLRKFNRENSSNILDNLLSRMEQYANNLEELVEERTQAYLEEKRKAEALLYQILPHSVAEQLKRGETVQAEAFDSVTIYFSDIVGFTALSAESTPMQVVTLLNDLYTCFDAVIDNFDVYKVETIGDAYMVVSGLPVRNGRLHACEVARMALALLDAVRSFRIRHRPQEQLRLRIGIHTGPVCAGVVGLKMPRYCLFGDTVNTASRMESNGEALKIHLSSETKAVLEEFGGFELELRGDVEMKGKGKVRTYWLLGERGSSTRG
T7 chain 2: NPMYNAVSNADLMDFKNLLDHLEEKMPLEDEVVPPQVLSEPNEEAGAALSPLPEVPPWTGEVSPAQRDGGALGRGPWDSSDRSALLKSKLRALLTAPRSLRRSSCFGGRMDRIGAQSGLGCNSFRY

Measured: binding result

B1: WW01 IgG (antibody, V domains shown)
VH: QVQLLESGGGLVQPGGSLRLSCAASGFTFNTHYIHWVRQAPGKGLEWVSSISGSGSNTYYADSVKGRFTISRDNSKNTLYLQMNSLRAEDTAVYYCARERGYVYYHMFDPWGQGTLVTVSS
VL: DIVLTQSPATLSLSPGERATLSCRASQSITRNYLAWYQQKPGQAPRLLIYGASSRATGIPARFSGSGSGTDFTLTISSLEPEDFAVYYCQQHSMYPRTFGQGTKVEIK
no binding: rat NPR1-ANP complex | human NPR1 | rat NPR1 | human NPR3 + ANP | human NPR1 W74R | human NPR3 | human NPR1 W74R + ANP
